According to paper PMC9888390, “A non-neutralizing glycoprotein B monoclonal antibody protects against herpes simplex virus disease in mice” (The Journal of Clinical Investigation, 2023):

Experiments:
[1] = target: glycoprotein B of HSV-2(G), from infected HaCaT cells (Human herpesvirus 2, strain G, UniProt A0A0D4CHI5, strain); experiment: affinity purification with mass spectrometry; RIPA lysate of HSV-2(G)-infected HaCaT cells incubated overnight at 4°C with 1 mg/mL mAb; Protein A resin; elution with glycine-HCl pH 2.5-3.0; SDS-PAGE, in-gel trypsin digestion, nano-LC-MS/MS; details: one partner purified
[2] = target: T1, glycoprotein B of HSV-2(4674), from infected Vero cells (Human herpesvirus 2, clinical isolate …, UniProt P08666, strain); experiment: Western blot; HSV-2(4674)-infected or uninfected Vero cell lysates (10 μg per lane) separated by PAGE with β-mercaptoethanol, blotted and probed with BMPC-23 (10 μg/mL) overnight; anti-mouse IgG-HRP; details: one partner purified
T1 construct: glycoprotein B of herpes simplex virus 2, clinical isolate 4674, as made in infected cells; Seen as a band of about 100 kDa or about 116 kDa on a reducing gel; also called gB; monomeric gB; source: Vero cells infected with HSV-2(4674), in lysate

[3] = target: T2, Recombinant HSV-1 glycoprotein B, soluble ectodomain (Human herpesvirus 1, strain  …, UniProt P06437); experiment: Luminex bead binding assay; HSV-1 gB coupled to carboxylated beads; rAbs serially diluted from 2 μg/mL (3-fold, 11 dilutions) in PBS with 1% BSA, 0.05% NaN3, 0.05% Tween-20 and 1% milk, 2 hours; detected with PE-conjugated goat anti-mouse IgG; details: both partners purified
T2 construct: glycoprotein B of herpes simplex virus 1, soluble ectodomain, postfusion state; The printed limits 31-70 are perhaps a misprint of 31-730 (surmised). 'epo' in the name is perhaps a foreign signal peptide (surmised); also called gB; gB-1; not shown: His tag, C-terminal, kept

[4] = target: T2, Recombinant HSV-1 glycoprotein B, …; experiment: BLI; OctetRed96; gB (C-terminal His tag) captured on anti-His (HIS2) biosensors at 1 ng/μL, dipped into increasing concentrations of BMPC-23 Fab; 1:1 binding model; apparent KD derived from on and off rates; details: both partners purified
[5] = target: T2, Recombinant HSV-1 glycoprotein B, …; experiment: cryo-EM structure; gB 2.5 mg/mL with a 2-fold molar excess of Fab (3 mg/mL), 0.08% n-octyl-β-D-glucoside; Titan Krios 300 keV, K3 detector; gB in the postfusion state; details: both partners purified

B1: BMPC-23 recombinant mouse IgG (antibody, V domains shown)
VH: QVQLQQSGPELVKPGASVKLSCKASGYSFTTYDINWVKERPGQGLEWIGWIYPREGSTNYNEKFRGKATLTADTSSSTAYMELHSLTSEDSAVYFCATYGSSRYYTMDYWGQGTSVTVSS
VL: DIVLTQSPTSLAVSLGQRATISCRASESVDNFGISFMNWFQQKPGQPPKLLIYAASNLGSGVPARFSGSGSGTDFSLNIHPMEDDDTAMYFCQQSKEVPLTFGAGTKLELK
notes: VH of BMPC-23 (bone marrow plasmacyte of a ΔgD-2-vaccinated C57BL/6 mouse); mouse IgG1 or IgG2c constant region from the expression vector; VL of BMPC-23; Cloned into both mouse IgG1 and IgG2c vectors; also called BMPC-23 (IgG2c); mIgG2c BMPC-23; source: Expi293F, transient transfection, purified from culture supernatant (protein G spin columns); copies: 2 + 2
B1: binds [1]; binds [2]; binds [3].

B2: BMPC-23 Fab (Fab, V domains shown)
VH: B1 VH
VL: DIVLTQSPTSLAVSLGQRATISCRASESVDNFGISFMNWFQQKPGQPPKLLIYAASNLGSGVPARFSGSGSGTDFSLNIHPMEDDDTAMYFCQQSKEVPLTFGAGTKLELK
notes: as the heavy chain of m1 up to the papain cut; as the light chain of m1; also called Fab of BMPC-23; Fab portion of BMPC-23; source: from intact BMPC-23 (Expi293F) by cleavage with immobilized papain; purified by subtractive protein A chromatography
With B2 the Kd [4] was 10 nM.

B3: HSV010-13 recombinant mouse IgG (antibody, V domains shown)
VH: QVQLQQPGAELVKPGASVKLSCKASGYTFTSYWIHWVKQGPGQGLEWIGMIHPNSGITHYNEKFKTKATLTVDKSSSTAYMQLSSLTSEDSAVCYCARGSSSGSAWFAYWGQGTLVTVSA
VL: DIQMTQSSSYLSESLGGRVTITCKASDHINNWLAWYQQKPGNAPRLLISGATSLETGVPSRFSGSGSGKDYTLSITSLQTEDVATYYCQQYWSSPLTFGAGTKLELK
notes: VH of HSV010-13 (germinal center B cell of a ΔgD-2-vaccinated C57BL/6 mouse); VL of HSV010-13; Member of a clonal lineage of five (HSV010-6, -9, -13, -14, -15); source: Expi293F, transient transfection, purified from culture supernatant (protein G spin columns); copies: 2 + 2
B3: binds [3].

B4: HSV010-13 Fab (Fab, V domains shown)
VH: B3 VH
VL: B3 VL
notes: Fab part of the heavy chain of m5; as the light chain of m5; The methods tell how the Fab was made only for BMPC-23; also called Fab fragment of HSV010-13
B4: binds [5].
